We go through 2 molecules from patent US20210340205A1 (Novartis, published 2021).

This assay concerns the target T1, Human cRET(ECD)-Fc (human).
T1 construct: also called RET-Fc
The experiment in a line: MSD plate assay, cRET(ECD)-Fc coated; biotinylated anti-6xHis mAb and streptavidin sulfo-tag. On the procedure:
Methods: To generate soluble GDF15/GFRAL complexes in vitro, recombinant GFRAL(D2D3)-App, GFRAL(ECD)-His, and GFRAL(ECD)-Fc proteins purified in Example 1 were freshly mixed with equimolar amounts of biotinylated His-GDF15 (1250 pM) in DPBS supplemented with 50 μM CaCl₂. The mixtures were incubated at room temperature for 60 min to allow complex formation. The complex made was stable at 4° C. and was used directly for in vitro binding assays against cRET(ECD)-Fc coated on plastic plates without further purification. Three different GDF15/GFRAL ECD complexes were prepared, including His-GDF15(biotin)/GFRAL(D2D3)-App, His-GDF15(biotin)/GFRAL (ECD)-His, and His-GDF15(biotin)/GFRAL (ECD)-Fc in the same manner. […] His-GDF15(L294R) was mixed with GFRAL(ECD)-His to generate a negative control for GDF15/GFRAL/cRET interaction. […]
Methods: Mixtures of purified biotinylated His-GDF15 and GFRAL(ECD)-His or His-GDF15(L294R) and GFRAL(ECD)-His were prepared as described in Example 3. […] Binding of proteins to plates coated with cRET(ECD)-Fc was detected using biotinylated mouse anti-6×His tag monoclonal antibody followed by streptavidin sulfo-tag, and otherwise by methods described in Example 3.

T1 sequence (chain, as listed by the source): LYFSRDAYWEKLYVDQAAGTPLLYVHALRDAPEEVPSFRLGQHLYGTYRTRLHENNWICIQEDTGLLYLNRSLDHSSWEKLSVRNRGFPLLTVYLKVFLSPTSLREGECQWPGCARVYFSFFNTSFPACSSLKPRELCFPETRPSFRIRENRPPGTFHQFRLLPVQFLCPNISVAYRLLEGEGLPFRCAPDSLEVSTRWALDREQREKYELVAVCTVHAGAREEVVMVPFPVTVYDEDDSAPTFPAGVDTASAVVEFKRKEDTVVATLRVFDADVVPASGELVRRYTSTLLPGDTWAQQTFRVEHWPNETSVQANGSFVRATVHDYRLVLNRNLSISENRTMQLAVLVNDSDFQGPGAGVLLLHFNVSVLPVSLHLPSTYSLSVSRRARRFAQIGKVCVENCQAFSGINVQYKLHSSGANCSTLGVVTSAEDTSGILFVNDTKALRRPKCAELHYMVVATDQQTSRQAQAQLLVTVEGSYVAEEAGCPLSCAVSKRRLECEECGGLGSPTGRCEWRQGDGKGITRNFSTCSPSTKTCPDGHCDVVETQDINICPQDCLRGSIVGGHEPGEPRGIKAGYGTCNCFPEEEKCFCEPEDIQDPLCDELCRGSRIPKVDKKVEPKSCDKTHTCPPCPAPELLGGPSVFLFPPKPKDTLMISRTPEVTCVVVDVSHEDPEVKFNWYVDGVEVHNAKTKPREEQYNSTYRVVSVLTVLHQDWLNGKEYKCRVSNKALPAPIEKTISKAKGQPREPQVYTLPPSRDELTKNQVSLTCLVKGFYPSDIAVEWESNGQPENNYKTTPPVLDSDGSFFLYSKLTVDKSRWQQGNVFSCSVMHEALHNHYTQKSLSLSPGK

B1: His-GDF15(L294R)/GFRAL(ECD)-His mixture (other)
chain 1: HHHHHHGSGGARNGDHCPLGPGRCCRLHTVRASLEDLGWADWVLSPREVQVTMCIGACPSQFRAANMHAQIKTSLHRLKPDTVPAPCCVPASYNPMVLIQKTDTGVSRQTYDDLLAKDCHCI
chain 2: QTNNCTYLREQCLRDANGCKHAWRVMEDACNDSDPGDPCKMRNSSYCNLSIQYLVESNFQFKECLCTDDFYCTVNKLLGKKCINKSDNVKEDKFKWNLTTRSHHGFKGMWSCLEVAEACVGDVVCNAQLASYLKACSANGNPCDLKQCQAAIRFFYQNIPFNIAQMLAFCDCAQSDIPCQQSKEALHSKTCAVNMVPPPTCLSVIRSCQNDELCRRHYRTFQSKCWQRVTRKCHEDENCISTLSKQDLTCSGSDDCKAAYIDILGTVLQVQCTCRTITQSEESLCKIFQHMLHRKSCFNYPTLSNVKGMALYTRKHANKITLTGFHSPFNGEGSHHHHHH
As to B1, the binding result is reported as “no binding (tested: 0-5 log 10 pM)”.

B2: His-GDF15(L294R) (ligand)
chain: HHHHHHGSGGARNGDHCPLGPGRCCRLHTVRASLEDLGWADWVLSPREVQVTMCIGACPSQFRAANMHAQIKTSLHRLKPDTVPAPCCVPASYNPMVLIQKTDTGVSRQTYDDLLAKDCHCI
notes: Non-functional mutant, prepared in the same way as wild-type His-GDF15 (E. coli, see US 2017/204149); also called His-GDF15(L294R) mutant
Consider B2, for which the binding result was “no binding (tested: 0-5 log 10 pM)”.
